Source: article PMC12132378 (bioRxiv, 2025)

Molecular target: Ub-Lys-TAMRA (UniProt P0CG48 1-76, Ub is isopeptide-linked to a TAMRA-labeled Lys-Gly dipeptide (modification at the Ub C-terminus))
Assay: fluorescence polarisation

B1: RNF114 (wild type, full length) (enzyme)
chain: MAAQQRDCGGAAQLAGPAAEADPLGRFTCPVCLEVYEKPVQVPCGHVFCSACLQECLKPKKPVCGVCRSALAPGVRAVELERQIESTETSCHGCRKNFFLSKIRSHVATCSKYQNYIMEGVKATIKDASLQPRNVPNRYTFPCPYCPEKNFDQEGLVEHCKLFHSTDTKSVVCPICASMPWGDPNYRSANFREHIQRRHRFSYDTFVDYDVDEEDMMNQVLQRSIIDQ
**Q.** How did the Kd turn out when B1 was run?
**A.** ~20 µM
